# Measured values published in the DeepSol protein solubility set.
# Assay: soluble on expression in E. coli; label from the status in PepcDB or PDB records
row,Sequence,soluble on expression in E. coli
1,AIAAHVSSETQDVSPKDELTASEASTRSPLCEHTFPGDSDLRSMIEEHAFQVLSQGSLLESPSYTVCVSEPDKDDDFLSLNFPRKLWKIVESDQFKSISWDENGTCIVINEELFKKEILETKAPYRIFQTDAIKSFVRQLNLYGFSKIQQNFQRSAFLATFLSEEKESSVLSKLHVFVFHHSLFGATFGEHHFQPCPLPSGNKAPISTWSGDSWLL,soluble
2,MGSDKIHHHHHHMGQRIPVTLGNIAPLAVKPFRPGKLALVCEGGGQRGIFTAGVLDEFMRAGFNPFDLMLGTSAGAQNLSAYMCNQQGYARKVITRYTTSRQFFDPMRFVRGGNLIDLDWLVEATSQQMPLAMNYAEAQFALGKELWLCACRGDDYSASYFSPTPQTWLDLIRASSAIPGFYRSGVLLDGVSYLDGGVSDAIPVQEAARRGAQTIVVIRTVPSQMFYTPQWFKRMERWLGESSLQPLVNLVHHHETTYRAIQQFIEKPPGKLRIFEIYPQRPLRSMALGSRLPALLEDYKTGRQCGRYFLATVGKLLADQPPLLRHAPRIARPAPVVVPPVPVANEAPQATIIPAPQANDPSFDHEDLA,not soluble
3,GSHMTNDIYFMTLAIEEAKKAAQLGEVPIGAIITKDDEVIARAHNLRETLQQPTAHAEHIAIERAAKVLGSWRLEGCTLYVTLEPCVMCAGTIVMSRIPRVVYGADDPKGGCSGSLMNLLQQSNFNHRAIVDKGVLKEACSTLLTTFFKNLRANKKSTN,soluble
4,MGSDKIHHHHHHMSVISENVKYFRKQLGFTQEQLAQRIGIKRSLLGAYEEGRAEPGLETLTILARLFETTVDALISETLSDPGKRKEAMSKDIEGKKLRVLAITVDKDDKENIQLVPEKAAAGYLNGYADPEYVAELPQFYLPIFSGSGTYRAFEIKGDSMLPLASGSLIIGQYVDNWSSVKDQQTYILVTATEGIVYKRIYNNIKKNETLKLVSDNPAYEPYDIHVENVIEIWESKAYISTDFPKPDMSVEKLTAIVSGLQKQMNKLSND,not soluble
5,SVRRKSCIVKEMEKMKNKREEKRAQNSELRIKRAQEYDSSFPNWEFARMIKEFRVTMECSPLTVTDPIEEHRICVCVRKRPLNKQELAKKEIDVISVPSKCLLLVHEPKLKVDLTKYLENQAFCFDFAFDETASNEVVYRFTARPLVQTIFEGGKATCFAYGQTGSGKTHTMGGDLSGKSQNASKGIYAMASRDVFLLKNQPRYRNLNLEVYVTFFEIYNGKVFDLLNKKAKLRVLEDSRQQVQVVGLQEYLVTCADDVIKMINMGSACRTSGQTFANSNSSRSHACFQILLRTKGRLHGKFSLVDLAGNERGADTSSADRQTRMEGAEINKSLLALKECIRALGQNKAHTPFRESKLTQVLRDSFIGENSRTCMIAMISPGISSCEYTLNTLRYADRVKELSHHHHHHH,soluble
6,ASQIERNLARISAEKNRLDTILRGMGEGLMVSDAGGTVTLVNPAFLELFGLTQSVEGRQIIEIARFPELHETFRAVVSSRSEHVEEMTLPLGDEKQVLTHWVPLMEEDELRGVVAVFHDIS,not soluble
7,MSLKLLAIAPYEGLRQLFLRVAEEEGLSIKAEVGNLDEGVRLAKKAADESFDVIISRGGTATLIQQHLSIPVVEIEISGYDLLKNLLFLKEYPDKKAIVGFPQITNGVQLINELLDVSFSTVTIHSEGEAIHALKELKAQGFESVLGDVITVNEAERLGMNGFLLSSGEESVRKAFNQAKRVVKALGRDRLNYELPLSYLHEQERGLVLLDQNNDVCFVNEFAKKFQLMEFINDHSFMRQLRTPRETGAFSWSDGHSVWYIRYKAIGNQGLAIEFAQLNERVLNDHPKEGHHHHHH,soluble
8,MGSDKIHHHHHHAGEKLVESAAAPRIINIINFIRQTDYRVENADSLLYETVCEQVKLVNKYDLPATFLLQYDALINPLYQDLLKSKLNAHSEIGAWWELTQPQIEAAGIKWRGEHSWVSHANIAFSTGYTKEERERLVDVYMAKFKEIFGTYPKSVGSWFIDAHTLGYMYDKYKIVASCNCKDQVGTDGYTLWGGYWNQAYYPSRVNAYMPAQTEEGQIPVPIFRMLGSDPIYQYDDGLGQERQGVISLEPVYEKAGMDRRWVDYFLESIVNQPCLAFNYAQAGQENSFTWSNMSKGLEMQIPILDSLRKENKIRVETLGESGAWFKECFKVTPPTAVTTLTDVRGEGNKTVWFNSRYYRANLLWERGTFRFRDIHLFDEGYKSAYMEKPGDGNQFLFYTLPVVDGFMWSEGLDRAGLRIVRLDKDGDKEELTLDHPVVTEIGKDTLVVSAEDSKGHPFKITFYETRFEVAALSKEADLSWALELKVAAGKELPFTVIEDKAVNASFDGFNYVITCKKGHIRKPESGSDYVFRILPSDKEIVINCTNTRLNCTHEK,not soluble
9,MSLNPKQVSQKLANKPKDRPIAFVSKPDSLTQCLTPVFTNSEGYVSVSDCEEAIDARYDVFSRIAWKLRDGWVCLSAENEKYNQGKRLILRPCVIDDKTQSFTIKDNMLYTPDLRFVVRIANGFLTLQKSQSKGAQSNLILHNMQEWLDTIATPAPLMQKGFIAWKFISPQGFDVYYLRNNESIKNDPQELYFNLENGIIAQYDSASAKMFCLTSKQNAKQDWNWASWEECLQQNLRENKAAPSKLNAQNWKLFMFADNDSAMLKDYLGNFLRVTKYGSNWGVPYTAKADYLAKDTNEGQTSYFQFRHDMQDWERFKNANLSDSLPTCPANGSYAKNLKASVKLPPSFVLTQEWKKRLWQIATTTDGVLERAGDCGVCLLHSYQMIAEMNEYTATPLESGGFFFDTAFGRNPFTSFRARYPMLAASLEQYRASNTPPGLSRSAVFAYAAQMYRAIALSLFPGHFWLSSEFATSDVTIRSALRDLFQQPAGTLWVVQMYYVARDGSFNGHGMPVLRTGDGIQFIPTNLTNMNYEGYERALSNSFAHNLREAYNVVTRNGTLNLYMLYSLRLREIYPNPINAFVSNNNCSGEGEDRRGTRNMPLSRFINQCASGRCVLQEGHHHHHH,not soluble
10,MSLYQLEDDSLMLHNDLYQINMAESYWNDNIHEKMAVFDLYFRKMPFNSGYAVFNGLKRVIDFIEHFGFSESDLEYLKSIGYKDDFLSYLKDLKFTGSIRSMQEGELCFGNEPLLRVEAPLIQAQLIETILLNIVNFHTLITTKASRIRQIASNDKLMEFGTRRAQEIDAALWGARAAYIGGFDSTSNVRAGKLFGIPVSGTHAHAFVQTYGDEYVAFKKYAERHKNCVFLVDTFHTLKSGVPNAIKVAKELGDKINFVGIRLDSGDIAYLSKEARRMLDEAGFTETKIIASNDLDEETITSLKAQGAKVDSWGVGTKLITGYDQPALGAVYKLVAIENEEGSYSDRIKLSNNAEKVTTPGKKNVYRIINKKTGKAEGDYITLENENPYDEQPLKLFHPVHTYKMKFIKSFEAIDLHHNIYENGKLVYQMPTEDESREYLAQGLQSIWDENKRFLNPQEYPVDLSKACWDNKHKRIFEVAEHVKEMEEDNEEGHHHHHH,soluble
11,MSLKLEIIAIGGYEEVGRNMTAVNVDGEIIILDMGIRLDRVLIHEDTDISKLHSLELIEKGIIPNDTVMKNIEGEVKAIVLSHGHLDHIGAVPKLAHRYNAPIIGTPYTIELVKREILSEKKFDVRNPLIVLNAGESIDLTPNITLEFIRITHSIPDSVLPVLHTPYGSIVYGNDFKFDNFPVVGERPDYRAIKKVGKNGVLCFISETTRINHEGKTPPEIIASGLLKNDLLAADNDKHGIIVTTFSSHIARIKSITDIAEKMGRTPVLLGRSMMRFCGIAQDIGLVKFPEDLRIYGDPSSIEMALKNIVKEGKEKYLIIATGHQGEEGAVLSRMATNKTPYKFEKYDCVVFSADPIPNPMNAAQRYMLESRLKLLGVRIFKGAHVSGHAAKEDHRDMLRWLNPEHIIPSHGDFNLTAEYTKLAEEEGYRLGEDVHLLRNGQCLSFEREGHHHHHH,soluble
12,MDLTVPVEYSRAGNTTHSGNVHAIQDDEKFSYGTAGFRFKSEKLPFIVFRCAYVASLRARQLNSAIGVMITASHNPSCDNGVKLVDPSGDMLNEQWEIYATEVVNATDAELPAAVRALEKQISVGKTQLSRVVCGMDTRCSGPCLMNAARAGAALFNVQFDDIGVVSTPMLHYAVKAFNEPKFAEPTHDGYYSAIADSFKKLYEITEEPKDSRYQPKVIVDCANGVGAPRFRNLLERIPSSLLEVEFRNESEELNQGCGADFVKISQKLPANFSPTAAEPKCASFDGDADRLMYFRAKASENSESNDAELFDGDKIAVLIVTYIREQLKDYENSTPMERLRLGIVQTAYANGSSTRYIREKLGIEPIIVPTGVKHLHEAASEFDIGIYFEANGHGTVVFSEIFDRIIRRTPTESLPLRRLALFSRVINETVGDAFADLLAVEAVLRHYGWSMDDWAEKLYRDVPNVQIKVPVIDRSIFKTTNAEQTLVKPVGIQKMIDTDVAKYNNSRAFIRPSGTENIVRVYAEADTVENTLQLGKSLEQVVLNLCNSN,not soluble
